Assay results as given in article PMC9458440, “Cryo-EM structure of the Smc5/6 holo-complex” (Nucleic Acids Research, 2022).

Columns and labels:
Assay in all cases: cryo-EM structure; BS3-crosslinked six-subunit holo-complex, apo / non-liganded; fractions from Superose 6 diluted to 20 mM HEPES.NaOH pH 7.5, 50 mM NaCl, 0.5 mM TCEP, 0.1 mg/ml; maps at 10.8 Å (holo-complex), 8.53 Å (hinge/arm) and 6.5 Å (head-only); pseudo-atomic model built from homology and AlphaFold models
Settings in all cases: both partners purified
[1] = molecular target: T1, Nse4 with HaloTag, kleisin subunit of the S. cerevisiae Smc5/6 holo-complex (S. cerevisiae, UniProt P43124 1-402)
T1 construct: Nse4, Saccharomyces cerevisiae; the model holds amino acids 40-124, 184-202, 213-245, 283-402; Density of the HaloTag attached to Nse4 was removed by particle subtraction, so the tag was on the protein on the grid; its end is told only for the yeast strain (C-terminal), not for the recombinant protein; source: recombinant, expressed in insect cells, purified as holo-complex (Superose 6 SEC), …
T1 sequence: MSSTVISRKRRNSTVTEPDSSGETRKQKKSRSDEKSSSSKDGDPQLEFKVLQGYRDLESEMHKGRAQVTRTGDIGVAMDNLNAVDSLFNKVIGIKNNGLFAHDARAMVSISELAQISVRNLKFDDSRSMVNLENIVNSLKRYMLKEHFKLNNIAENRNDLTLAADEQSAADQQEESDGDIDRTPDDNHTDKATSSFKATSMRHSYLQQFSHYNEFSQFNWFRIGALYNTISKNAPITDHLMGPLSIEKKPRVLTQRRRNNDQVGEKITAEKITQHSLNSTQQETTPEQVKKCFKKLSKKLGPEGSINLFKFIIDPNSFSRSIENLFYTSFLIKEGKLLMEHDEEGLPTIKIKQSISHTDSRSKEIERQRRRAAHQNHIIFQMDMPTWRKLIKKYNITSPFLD

[2] = molecular target: T2, Smc5 (Walker B mutant E1015Q), subunit of the S. cerevisiae Smc5/6 holo-complex (S. cerevisiae, UniProt Q08204 1-1093, E1015Q)
T2 construct: Smc5, Saccharomyces cerevisiae; the model holds amino acids 35-390, 394-882, 884-1068; The complex was crosslinked with BS3; also called κ-SMC; source: recombinant, expressed in insect cells, purified as holo-complex (Superose 6 SEC), BS3-crosslinked
T2 sequence: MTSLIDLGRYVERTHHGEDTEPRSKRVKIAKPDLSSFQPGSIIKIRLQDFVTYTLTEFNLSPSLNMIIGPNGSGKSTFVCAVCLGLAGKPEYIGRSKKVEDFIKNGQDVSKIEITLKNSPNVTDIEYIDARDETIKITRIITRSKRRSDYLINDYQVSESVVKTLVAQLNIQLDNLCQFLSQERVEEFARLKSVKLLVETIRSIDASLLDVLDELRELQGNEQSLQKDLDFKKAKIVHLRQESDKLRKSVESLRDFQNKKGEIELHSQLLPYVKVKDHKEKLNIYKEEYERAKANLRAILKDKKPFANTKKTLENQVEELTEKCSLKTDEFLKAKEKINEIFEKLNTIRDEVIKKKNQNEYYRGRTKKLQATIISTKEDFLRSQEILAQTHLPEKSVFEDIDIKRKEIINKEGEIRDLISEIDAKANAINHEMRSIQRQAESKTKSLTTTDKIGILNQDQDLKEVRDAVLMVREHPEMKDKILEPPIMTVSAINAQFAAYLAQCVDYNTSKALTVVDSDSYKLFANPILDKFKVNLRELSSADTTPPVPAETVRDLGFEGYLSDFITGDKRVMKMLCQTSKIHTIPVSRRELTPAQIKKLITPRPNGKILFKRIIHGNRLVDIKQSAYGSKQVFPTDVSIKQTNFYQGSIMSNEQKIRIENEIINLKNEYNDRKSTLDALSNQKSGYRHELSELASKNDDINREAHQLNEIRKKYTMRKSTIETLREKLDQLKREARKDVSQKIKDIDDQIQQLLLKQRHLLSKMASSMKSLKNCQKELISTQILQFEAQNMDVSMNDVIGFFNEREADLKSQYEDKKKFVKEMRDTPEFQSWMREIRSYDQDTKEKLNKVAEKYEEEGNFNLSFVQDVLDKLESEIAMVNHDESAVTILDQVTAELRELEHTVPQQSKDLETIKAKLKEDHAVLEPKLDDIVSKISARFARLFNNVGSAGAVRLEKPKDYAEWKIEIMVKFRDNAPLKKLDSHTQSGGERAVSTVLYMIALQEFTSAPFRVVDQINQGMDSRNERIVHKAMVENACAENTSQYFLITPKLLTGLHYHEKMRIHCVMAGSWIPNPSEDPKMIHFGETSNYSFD

[3] = molecular target: T3, Nse1, subunit of the S. cerevisiae Smc5/6 holo-complex (S. cerevisiae, UniProt Q07913 1-336)
T3 construct: Nse1, Saccharomyces cerevisiae; the model holds amino acids 11-336; also called KITE subunit; source: recombinant, expressed in insect cells, purified as holo-complex (Superose 6 SEC), BS3-crosslinked
T3 sequence: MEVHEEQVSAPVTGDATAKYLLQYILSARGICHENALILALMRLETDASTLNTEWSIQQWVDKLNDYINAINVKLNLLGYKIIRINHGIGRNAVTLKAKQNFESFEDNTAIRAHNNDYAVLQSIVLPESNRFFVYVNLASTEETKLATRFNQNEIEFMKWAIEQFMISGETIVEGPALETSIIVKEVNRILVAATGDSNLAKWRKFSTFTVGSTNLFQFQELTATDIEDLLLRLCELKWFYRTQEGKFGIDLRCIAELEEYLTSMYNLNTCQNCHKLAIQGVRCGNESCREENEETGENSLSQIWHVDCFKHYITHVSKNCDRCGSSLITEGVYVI

Measured: binding result

B1: Nse3, subunit of the S. cerevisiae Smc5/6 holo-complex (natural protein)
chain: MSSIDNDSDVDLTEDLAVAKIVKENPVARKMVRYILSRGESQNSIITRNKLQSVIHEAAREENIAKPSFSKMFMDINAILYNVYGFELQGLPSKNNMNAGGNGSNSNTNKSMPEPLGHRAQKFILLNNVPHSKNFDDFKILQSAHTYEELIVTGEYIGDDIASGTSNTLESKLSTDRDLVYKGVLSVILCIVFFSKNNILHQELIKFLETFGIPSDGSKIAILNITIEDLIKSLEKREYIVRLEEKSDTDGEVISYRIGRRTQAELGLESLEKLVQEIMGLEKEQTKSLHDDIIKSIGDSYSI
notes: Nse3, Saccharomyces cerevisiae; the model holds amino acids 9-99, 114-152, 173-303; also called KITE subunit; source: recombinant, expressed in insect cells, purified as holo-complex (Superose 6 SEC), BS3-crosslinked
binds: all assays above
